Source: article PMC5490261, “The structural and functional characterization of human RecQ4 reveals insights into its helicase mechanism”
Where a chain is given by its changes, count along the chain named.

What was measured:
Assay in all cases: fluorescence polarization; WT-like affinity; figure values not assignable from text layer; 20 mM HEPES pH 8.0, 10 mM NaCl, 5% glycerol, 1 mM MgCl2, 0.5 mM TCEP, 0.5 nM Cy3-ssDNA; temperature not stated
Settings in all cases: protein: recombinant; tags: Trx-His6 removed by 3C protease; label: 5' Cy3
RecQ4 427-1208 R618L = molecular target: T1, RecQ4 427-1208 R618L (Homo sapiens, UniProt O94761 427-1208, R618L)
T1 sequence: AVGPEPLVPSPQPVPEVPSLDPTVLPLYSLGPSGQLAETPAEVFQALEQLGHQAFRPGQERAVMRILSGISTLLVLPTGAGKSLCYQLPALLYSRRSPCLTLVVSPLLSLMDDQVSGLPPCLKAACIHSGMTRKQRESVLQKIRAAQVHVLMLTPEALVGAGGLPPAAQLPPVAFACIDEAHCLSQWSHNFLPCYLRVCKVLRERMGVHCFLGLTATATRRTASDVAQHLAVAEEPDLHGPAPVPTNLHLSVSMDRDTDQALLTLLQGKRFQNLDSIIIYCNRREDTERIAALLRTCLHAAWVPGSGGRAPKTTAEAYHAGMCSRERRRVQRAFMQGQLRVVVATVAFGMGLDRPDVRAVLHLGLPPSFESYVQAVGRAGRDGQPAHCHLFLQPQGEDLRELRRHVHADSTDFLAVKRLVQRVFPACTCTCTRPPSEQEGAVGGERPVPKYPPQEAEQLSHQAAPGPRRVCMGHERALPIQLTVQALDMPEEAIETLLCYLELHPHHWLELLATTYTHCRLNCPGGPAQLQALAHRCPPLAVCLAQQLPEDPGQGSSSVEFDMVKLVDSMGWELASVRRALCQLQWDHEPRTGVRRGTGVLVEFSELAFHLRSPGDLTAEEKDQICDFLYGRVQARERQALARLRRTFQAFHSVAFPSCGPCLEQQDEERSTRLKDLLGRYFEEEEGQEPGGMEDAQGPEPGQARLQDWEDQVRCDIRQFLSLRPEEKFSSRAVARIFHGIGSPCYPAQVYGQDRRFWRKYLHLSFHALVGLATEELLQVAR

RecQ4 427-1208 H615L = molecular target: T2, RecQ4 427-1208 H615L (Homo sapiens, UniProt O94761 427-1208, H615L)
T2 sequence: T1 sequence with H189L, L192R

RecQ4 427-1208 W613L = molecular target: T3, RecQ4 427-1208 W613L (Homo sapiens, UniProt O94761 427-1208, W613L)
T3 sequence: T1 sequence with W187L, L192R

Measured: binding result

B1: T3-Cy3 (ssDNA)
DNA: CCATTCCACCCTCTATTTTTTTTTTTTTTT
binds: all assays above
